# Test results: patent publication US20220048967A1 (published 2022)
# Numbering of substitutions follows the chain as printed. Numbered stars: 1 amine (or outer) side, 2 acyl side, 3 side chain; on linkers, the order of the positions; unused ones are H or OH. Square brackets hold non-standard residues; d marks the D form. Side chains are listed from the residue outwards. Ends that are not written are not given here. * marks the point of attachment. C20 diacid = O=C(O)CCCCCCCCCCCCCCCCCCC(=O)*; γGlu = O=C(O)[C@H](CCC(=O)[*:2])N[*:1]; αMeF = C[C@](N)(Cc1ccccc1)C(=O)O; cTA = not defined here; AEEA = NCCOCCOCC(=O)O; Aib = CC(C)(N)C(=O)O
# T1: human gastric inhibitory peptide receptor (GIPR) (human, UniProt P48546 22-466)
# T1 sequence (looked up): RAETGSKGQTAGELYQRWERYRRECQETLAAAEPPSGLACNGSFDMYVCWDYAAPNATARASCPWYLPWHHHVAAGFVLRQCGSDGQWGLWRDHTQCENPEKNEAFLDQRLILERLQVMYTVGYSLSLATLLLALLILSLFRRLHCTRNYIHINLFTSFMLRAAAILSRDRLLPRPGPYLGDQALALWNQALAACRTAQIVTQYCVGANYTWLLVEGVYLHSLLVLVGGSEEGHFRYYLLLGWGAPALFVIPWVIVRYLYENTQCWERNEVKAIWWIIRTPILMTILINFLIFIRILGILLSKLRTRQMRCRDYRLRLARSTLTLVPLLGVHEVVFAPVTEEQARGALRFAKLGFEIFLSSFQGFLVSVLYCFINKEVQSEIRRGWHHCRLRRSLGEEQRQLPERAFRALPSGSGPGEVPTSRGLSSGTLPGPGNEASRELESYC
# B1: Example 120 (peptide)
# peptide: Y[Aib][cTA]GT[αMeF]TSDYSIXLDEK([AEEA-AEEA-γGlu-C20 diacid])AQ[Aib]AFIEYLIEGGPSSGAPPPS-NH2
# modifications: not fully specified (residue 13); printed as Y-Aib-cTA-GT-αMeF-TSDYSI-αMeF-LDEK((2-[2-(2-Amino-ethoxy)-ethoxy]-acetyl)2-(γ-Glu)-CO-(CH2)18-CO2H)AQ-Aib-AFIEYLIEGGPSSGAPPPS-NH2
# B2: Example 123 (peptide)
# peptide: Y[Aib]EGT[αMeF]TSDYSIXLDKK([AEEA-AEEA-γGlu-C20 diacid])AQ[Aib]EFIEYLIEGGPSSG-NH2
# modifications: not fully specified (residue 13); printed as Y-Aib-EGT-αMeF-TSDYSI-αMeF-LDKK((2-[2-(2-Amino-ethoxy)-ethoxy]-acetyl)2-(γ-Glu)-CO-(CH2)18-CO2H)AQ-Aib-EFIEYLIEGGPSSG-NH2
# B3: Example 124 (peptide)
# peptide: Y[Aib]EGT[αMeF]TSDYSIXLDEK([AEEA-AEEA-γGlu-C20 diacid])AQ[Aib]EFIEYLIEGGPSSG-NH2
# modifications: not fully specified (residue 13); printed as Y-Aib-EGT-αMeF-TSDYSI-αMeF-LDEK((2-[2-(2-Amino-ethoxy)-ethoxy]-acetyl)2-(γ-Glu)-CO-(CH2)18-CO2H)AQ-Aib-EFIEYLIEGGPSSG-NH2
# B4: Example 126 (peptide)
# peptide: Y[Aib]EGT[αMeF]TSDYSIXLDKK([AEEA-AEEA-γGlu-C20 diacid])AQ[Aib]AFIEYLIEAGPSSGAPPPS-NH2
# modifications: not fully specified (residue 13); printed as Y-Aib-EGT-αMeF-TSDYSI-αMeF-LDKK((2-[2-(2-Amino-ethoxy)-ethoxy]-acetyl)2-(γ-Glu)-CO-(CH2)18-CO2H)AQ-Aib-AFIEYLIEAGPSSGAPPPS-NH2
# B5: Example 127 (peptide)
# peptide: YXEGTXTSDISILLDKKAQXAFIEYLIEGGPSSGAPPPS
# modifications: Y-Aib-EGT-αMeF-TSDISILLDKK((2-[2-(2-Amino-ethoxy)-ethoxy]-acetyl)2-(γ-Glu)-CO-(CH2)18-CO2H)AQ-Aib-AFIEYLIEGGPSSGAPPPS-NH2
# B6: Example 138 (peptide)
# peptide: Y[Aib]EGT[αMeF]TSDYSIXLDKK([AEEA-AEEA-γGlu-C20 diacid])AQ[Aib]SFIEYLIEGGPSSGAPPPS-NH2
# modifications: not fully specified (residue 13); printed as Y-Aib-EGT-αMeF-TSDYSI-αMeF-LDKK((2-[2-(2-Amino-ethoxy)-ethoxy]-acetyl)2-(γ-Glu)-CO-(CH2)18-CO2H)AQ-Aib-SFIEYLIEGGPSSGAPPPS-NH2
# B7: Example 225 (peptide)
# peptide: YXEGTXTSDYSIXLDEKAQXEFIXYLIEGGPSSGAPPPS
# modifications: Y-Aib-EGT-αMeF-TSDYSI-Aib-LDEK((2-[2-(2-Amino-ethoxy)-ethoxy]-acetyl)2-(γ-Glu)-CO-(CH2)18-CO2H)AQ-Aib-EFI-(D-Glu)-YLIEGGPSSGAPPPS-NH2
# B8: Example 226 (peptide)
# peptide: B7 peptide with X13L
# modifications: Y-Aib-EGT-αMeF(2F)-TSDYSILLDEK((2-[2-(2-Amino-ethoxy)-ethoxy]-acetyl)2-(γ-Glu)-CO-(CH2)18-CO2H)AQ-Aib-EFI-(D-Glu)-YLIEGGPSSGAPPPS-NH2
# B9: Example 186 (peptide)
# peptide: B7 peptide with Y10X
# modifications: Y-Aib-EGT-αMeF(2F)-TSD-αMeY-SI-αMeF-LDEK((2-[2-(2-Amino-ethoxy)-ethoxy]-acetyl)2-(γ-Glu)-CO-(CH2)18-CO2H)AQ-Aib-EFI-(D-Glu)-YLIEGGPSSGAPPPS-NH2
# B10: Example 328 (peptide)
# peptide: FXEGTFTSDYSIXLDKKAQXAFIEYLIEAGPSSGAPPPS
# modifications: Aib2, αMeL13, K17 conjugated to (2-[2-(2-Amino-ethoxy)-ethoxy]-acetyl)2-(γ-Glu)-CO-(CH2)16-CO2H, Aib20, C-terminal amide (NH2)
# Target: T1, human gastric inhibitory peptide …
# Experiment: cell-based or functional assay
Binder,hGIPR cAMP EC50 ratio,hGIPR cAMP Rel EC50 [pM]
B1,1.67,122
B2,4.04,42.3
B3,2.18,76.2
B4,2.53,68.5
B5,0.917,158
B6,–,58.1
B7,–,101
B8,–,46.1

# Target: human GLP-1 receptor (GLP-1R) (human, UniProt P43220 24-463)
# Experiment: cell-based or functional assay
Binder,hGLP1R cAMP EC50 ratio,hGLP1R cAMP Rel EC50 [pM]
B1,0.319,201
B2,1.58,34.4
B3,1.29,47.5
B4,0.869,71.5
B5,0.443,145
B9,0.572,93.9

# Target: human GLP-1 receptor (human, UniProt P43220 24-463)
# Experiment: cell-based or functional assay
Binder,hGLP1R GTPgS % Top [%],hGLP1R GTPgS Rel EC50 [pM]
B10,66.3,481
